Reference: the supplement of paper PMC9170038

How the values were obtained:
MS2 coat protein [1] = test: apparent KD of MS2 coat protein, switch OFF state (with FMN for OFF switches, without FMN for ON switches); designed switch direction (-1 OFF switch, 1 ON switch): -1; higher = weaker reporter binding; details: FMN input: 0 or 200 uM; Eterna round: R93 (includes R88 designs)
How it was run: (§1)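 Designed RNA switches were made by on-chip transcription from Illumina sequencing clusters and then titrated with SNAP-549-labelled MS2 coat protein. Twofold steps ran from 0.7 or 1.5 nM to 3 µM, each lasting 0.8–1.5 h early and 10–20 min late, in 100 mM Tris-HCl pH 7.5, 80 mM KCl, 4 mM MgCl2, without or with constant ligand. Apparent KD is the per-design median of normalised cluster binding-curve fits.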

MS2 coat protein [2] = test: apparent KD of MS2 coat protein, switch ON state; designed switch direction (-1 OFF switch, 1 ON switch): -1; higher = weaker reporter binding; details: FMN input: 0 or 200 uM; Eterna round: R93 (includes R88 designs)
How it was run: as §1

| Sequence | apparent KD of MS2 coat protein (MS2 coat protein [1]) [nM] | apparent KD of MS2 coat protein (MS2 coat protein [2]) [nM] |
| --- | --- | --- |
| CUUAUGUGAGGAUAUGUACAGAAAAAACUGGGUGUAACUGUACAGAAGGCACAUGAGGAUCACCCAUGUAAAAA [EX4 387: S S Pseudoknot 12] | 31 | 36.4 |
| AGAAAGUCAGGAUAUCAGAAACUAGUCGAAACGACUAGAAAUGAGAAGGGACAUGAGGAUCACCCAUGUAAGAA [Ex4 sub 2] | 43.1 | 46.3 |
| AAAAAGUGAGGAUAUACAUGAGGAUCACCCAUGUAAUAAAAAAAAAGGGUGGAAGAAAGUAGAAGGCACCAAAA [Ex 3 May 48] | 142 | 48.2 |
| AAAUGACUAGGAUAUACAUGAGGAUCACCCAUGUGUAUAAAUAAAUACACAAAAGAAAGUAGAAGGAGUCAAAA [Ex 3 May 14] | 88.2 | 15.8 |
| GAAAAUUGAGGAUAUACGAACAUGUCAAAAGACGUGAAGGGACAUGAGGAUCACCCAUGUAGAAGGCGAAAGAG [Mat - Exclusion 2 - JL mod - D92] | 14.1 | 58.6 |
| AAGAAGUGAGGAUAUCGAAGACUGUCGAAAAGACAGUCGAACGAGAAGGCACAUGAGGAUCACCCAUGUGAGAG [Mat - Exaclusion 4 - Eli mod - D66] | 46.2 | 31.9 |
| AAAAAGUCAGGAUAUACAGAAAAAAAAACGAAAAAAAAUCUGUAGAAGGGACAUGAGGAUCACCCAUGUAAAAA [Ex 4 May 12] | 33.6 | 47.6 |
| GAAAAGUGAGGAUAUUCGGAUAGGAAAACGAAAACCUAUCCGAAGAAGGCACAUGAGGAUCACCCAUGUGAAAA [Mat - Exaclusion 4 - Eli mod - D44] | 26.8 | 22.4 |
| AACAGUACAGGAUAUACAUGAGGAUCACCCAUGUGAGAAUUUAGCAGCGUAACACACAGUAGAAGGGUAAUGGA [Ruby 21] | 39.3 | 45.4 |
| AAAAUGUCAGGAUAUGCGAAGGCAUCUGACAGAUGAGGAUUGCAGAAGGGACAUGAGGAUCACCCAUGUAAAAA | 41.7 | 66.7 |
| GAGAAUGAAGGAUAUACAUGAGGAUCACCCAUGUAAGAGAAAGAGGGAAAAGAGAAAAGUAGAAGGUCAAAGAG [Ruby 73] | 26 | 23.8 |
| AAAACACAUGAGGAUCACCCAUGUGAGGAUAUGAACGAAAAUAAAUAAAAAUAAAAGUUCAGAAGGCACAAAAA [66%, Wbt, 11] | 36.1 | 24.2 |
| AACUGACAUGAGGAUCACCCAUGUCAGGAUAUGAUAUGUAAAAAAUAAAAAAUACUUAUCAGAAGGGACAUGAA [Design 43: Sub-opt C] | 14.4 | 15.8 |
| GAAGAACAUGAGGAUCACCCAUGUCAGGAUAUGCGGAAGGGAAUAAUAACUUCCGGAAGCAGAAGGGACAAGAA [Ex 1 May 49] | 60 | 32.3 |
| GAUUAGGUAGGAUAUACAUGAGGAUCACCCAUGUAGGAAAAAAGCUACGAAAAAGAAUGUAGAAGGACCUAAAG [Mat - Exclusion 3 - Mayanna mod - D105] | 22.9 | 20.5 |
| AAAAAACAUGAGGAUCACCCAUGUGAGGAUAUCGAAAAGUCAAAGAAAAAGACGAAAACGAGAAGGCGCAAAAA [Inspired by Nando] | 26 | 23.7 |
| CAGUACUGAGGAUAUACAUGAGGAUCACCCAUGUAUCCUAGCUAGGAAACUAGCAAAUGUAGAAGGCAGUACUG [Ex3: 818] | 503 | 47.6 |

| Sequence | apparent KD of MS2 coat protein (MS2 coat protein [1]) [nM] | apparent KD of MS2 coat protein (MS2 coat protein [2]) [nM] |
| --- | --- | --- |
| GAAAAGUUAGGAUAUACAGAUAAAAAAACGAAAAAAAAUCUGUAGAAGGAACAUGAGGAUCACCCAUGUAAAAA [Mat - Exclusion 4 - Mayanna - D104] | 15.5 | 30.7 |
| AGGAAGUGAGGAUAUGCUGCUCGUCACUUGCGUGAUGAGUAGCAGAAGGCACAUGAGGAUCACCCAUGUAAAAA [Mat - Exaclusion 4 - Eli mod - D21] | 48.9 | 46.7 |
| AAAAAGGGAGGAUAUACAUGAGGAUCACCCAUGUAAAAAAAAAAAAAGGGAAAAAAAAGUAGAAGGCCCAAAAA [Apepi] | 52.6 | 50.1 |
| AACAUGUGAGGAUAUAUAAGAAAAGAAAAGAAAGAAAAGAAAUAGAAGGCACAUGAGGAUCACCCAUGUAAGAA [EteRNA is fun!] | 26.2 | 30 |
| AACAGUACAGGAUAUACAUGAGGAUCACCCAUGUAAAAAUAAUAAAAGGGCUCAAAAAGUAGAAGGGUACUGGA [Moding Maslow revisited (73) 15] | 66.3 | 31.2 |
| AACAAGUCAGGAUAUUCGAAAAGUAAAUAAGUAAAACAAAAGAAGAAGGGACAUGAGGAUCACCCAUGUAAAUA [JR_Exc004_Sub016] | 27.9 | 46.1 |
| AAAAAGGUAGGAUAUACAUGAGGAUCACCCAUGUAAAAAAAAACAAGAGAAAAAAAAUGUAGAAGGGCCAAAAA [Ex3 Malc#4] | 16.9 | 14.3 |
| AGCUAGUCAGGAUAUACGAACAUGUCAAAAGACGUAAGGGAACAUGAGGAUCACCCAUGUAGAAGGGACUCGCA [Diamond 51] | 98.5 | 61.3 |
| AGAAUACAUGAGGAUCACCCAUGUGAGGAUAUGCAGAUAAAAAUAAAAUAAAAUAAAUGCAGAAGGCACGAAAG [EX 1 May 21] | 86.1 | 37.1 |
| AAAAACAGAGGAUAUACAAAAUGAUGACGAAAGUCAUCAAAACAUGAGGAUCACCCAUGUAGAAGGCUGAAAAA [Mod of Meechl] | 20.2 | 24.2 |
| AGGAAACAUGAGGAUCACCCAUGUAAGGAUAUGAACGAAAAUAAAUAAAAAUAAAAGUUCAGAAGGUACAAAAA [66%, Wbt, 6] | 52.7 | 29.8 |
| AAAACGGUAGGAUAUACGAUUUGGAACUAAACCGAGGAACCACAUGAGGAUCACCCAUGUAGAAGGGCCAAAAA [Mat - Exclusion 2 - JL mod - D81] | 14.7 | 18.4 |
| AAGGUUGGAGGAUAUACAUAGAUACAGAUACAUGUAGACGUACAUGAGGAUCACCCAUGUAGAAGGCCAAUAUA [Mat - Same state - Mayanna Mod - D146] | 88.6 | 137 |
| AAAAGCUCAGGAUAUACGGUCUGUUGUUGAGAAAUAAAAAAACAUGAGGAUCACCCAUGUAGAAGGGAGCGAAA [Exclusion2-cac3] | 111 | 44.4 |
| AACAAACAUGAGGAUCACCCAUGUCAGGAUAUGCAAAUAACAAACAACAAACAACAAAGCAGAAGGGACGACAA [Mat - Exclusion 1 - Eli mod - D51] | 25.6 | 22.1 |
| AAAAAGUGAGGAUAUACGGUGUGGAGUAGACACAACCAGGCGUAGAAGGCACAUGAGGAUCACCCAUGUCCAAA [EX4 Malc#15] | 29.1 | 25.9 |
| AGUUGGCGAGGAUAUACAUGAGGAUCACCCAUGUGAGAGAAAAAAAGGAGAAAAAAAAGUAGAAGGCGCUGACA [Ruth Fulton Benedict] | 123 | 42.3 |
